Laboratory results from patent US20250213647A1, “CHEMOKINE RECEPTORS AND ALPHA1 ADRENERGIC RECEPTORS/VASOPRESSIN RECEPTORS 1A HETEROMERS AS DRUG TARGETS FOR DISEASE” (UNIVERSITY OF SOUTH FLORIDA, priority 2022, published 2025).
Read-outs that look alike come from different tables or passages of the source. One block for each compound: values may come before it.

How the values were obtained:
[1] = system: CR heteromerization partners of α1B/D-ARs (CCR1, CCR2, CXCR4); experiment: Chemotaxis assay, THP-1 cells, CR heteromerization partners of α1B/D-ARs taken together; type: cell-based, human; settings: FIG. 17D-17F
Description: (§1) Cell migration was measured employing the Neuroprobe (Gaithersburg, MD, USA) ChemoTx® Disposable Chemotaxis System. A 96-well Boyden-chamber (30 μL/well, 8 μm pores, 1×10^5 pores/cm^2 pore density) was selected for all chemotaxis experiments. Bottom wells of the Boyden-chamber were loaded with 30 μL of test substances at various concentrations. Top wells of the membrane were loaded with 25 μL of THP-1 cells, THP-1_ADRA1B^KO, wild type THP-1 cells after clonal expansion (=control for THP-1_ADRA1B^KO) or freshly isolated monocytes (200 cells/μL). THP-1 cells were suspended in depleted RPMI1640 (0.5% HyClone™ fetal bovine serum, Sigma); Freshly isolated monocytes were suspended in RPMI1640 (0.5% human platelet poor plasma, Sigma). After 3 hours, transmigrated cells were counted utilizing the Cytation 1 plate reader (BioTek) by direct imaging in high contrast bright field (4×) and post-imaging particle analyses with Gen5 (v3.05) Imaging & Microscopy Software (BioTek). The chemotactic index (CI) was calculated as the ratio of cells that transmigrated in the presence versus the absence of the test solutions.

CXCR4 [2] = settings: previous observations (Gao, 2018); cited from earlier work
CCR2 [3] = target: T1, CCR2 (Homo sapiens, UniProt P41597); experiment: Gαi activation assay (TRUPATH BRET), HEK293T cells transfected with CCR2 plus pcDNA3 (CCR2 alone); type: cell-based
Description: (§2) HEK293T cells were plated in a 6-well plate and transfected with 0.2 μg each of Gαi1-Rluc8, Gβ3 and Gγ9-GFP2 (Trupath) together with 0.2 μg of mouse or human CCR2 with either pcDNA3.1 or α1b-AR. One day after transfection, cells were trypsinized and replated to 96-well poly-L lysine precoated plates. After overnight incubation, cells were replaced with 0.1% glucose/PBS. Prolume Purple (NanoLight Tech.) or coelenterazine 400a in a final concentration of 5 μM were added in experiments with human or mouse CCR2, respectively, and incubated at room temperature for 3 min. Ligands at various concentrations were added to cells and incubated at room temperature for 5 min before luminescence was measured at 410 nm and 515 nm. […] The BRET changes were calculated by subtracting the BRET signal of untreated cells.

α1b-AR:CCR2 heteromer = target: T2, α1b-AR:CCR2 heteromer (Homo sapiens, UniProt P35368+P41597); experiment: Gαi activation assay (TRUPATH BRET), HEK293T cells transfected with CCR2 plus α1b-AR; type: cell-based
T2 construct: expressed in transfected cells; host or cells: HEK293T
Description: as §2

mouse CCR2 = target: T3, mouse CCR2 (Mus musculus, UniProt P51683); experiment: Gαi activation assay (TRUPATH BRET), HEK293T cells transfected with mouse CCR2; type: cell-based; settings: FIG. 9A
T3 construct: expressed in transfected cells; host or cells: HEK293T
Description: as §2

[4] = system: THP-1 cells (CCR2-mediated Gαi signaling); experiment: Cyclic AMP measurement in forskolin-stimulated THP-1 cells; type: cell-based, human; settings: for % inhibition of cAMP production by CCL2: 100 nM CCL2, FIG. 2F
Description: (§3) Cyclic AMP amounts were measured using the cAMP complete enzyme immunoassay kit, acetylated format (Enzo Life Sciences). 4×10^5 cells were incubated with forskolin/isobutylmethylxanthine (10 μM/0.5 mM final concentrations) in 0.1% BSA/10 mM Hepes-buffered RPMI and treated with CCL2 in the presence or absence of 1 μM PE, 1 μM PT or 100 nM NE at 37° C. for 15 min. The cells were lysed by incubating with 0.1 M HCl at room temperature for 20 min. The cAMP amounts in the lysate supernatant were measured following the manufacturer's instructions.

THP-1_ADRA1B^KO cells = experiment: Cyclic AMP measurement in forskolin-stimulated THP-1_ADRA1B^KO cells; type: cell-based, human; settings: forskolin-stimulated THP-1_ADRA1B^KO cells; 100 nM CCL2, 15 min at 37° C.; FIG. 2B
Description: as §3

CCR2 [5] = target: T1, CCR2; experiment: BRET assay for β-arrestin recruitment, HEK293T with CCR2-Rluc and β-arrestin-YFP without α1b-AR; type: cell-based; settings: FIG. 5C, read-out: EC50 of CCL2, BRET between CCR2-Rluc and β-arrestin-YFP
Description: (§4) β-arrestin recruitment was measured by BRET, as described (Armando, 2014; Berchiche, 2011). In brief, HEK293T cells were plated in a 6-well plate and transfected with 0.1 μg of CCR2-RluII and 1.9 μg β-arrestin-YFP with 0.1 μg pcDNA3.1 or α1b-AR. One day after transfection, cells were re-plated into 96-well poly-L lysine precoated plates. After overnight incubation, cells were replaced with 0.1% glucose/PBS. Coelenterazine H in a final concentration of 5 μM was added to cells and incubated at room temperature for 3 min. […] The BRET changes were calculated by subtracting the BRET signal of untreated cells.

CCR2 [6] = target: T1, CCR2; settings: higher for CCR2; cited from earlier work
CCR2 [7] = target: T1, CCR2; experiment: Radioligand competition binding assay, [125I]-CCL2, crude membrane preparations of THP-1 cells; design: host or cells: THP-1; settings: THP-1 cells pretreated with vehicle; mean±SE, n=3; read-out: IC50 of CCL2 to displace [125I]-CCL2
Description: Cells were then centrifuged at 30,000× g (20 min, 4° C.), the supernatant was discarded, and pelleted cell fragments were snap-frozen in liquid nitrogen. The cell pellets were resuspended in 50 mM HEPES, 5 mM MgCl2, 1 mM CaCl2, 0.1% w/v BSA, pH 7.2, and then incubated with 50 pM [^125I]-CCL2, 1× Xpert Protease Inhibitor Cocktail (GenDEPOT), and varying concentrations of CCL2 for 1.5 h at 25° C. Bound [^125I]-CCL2 was collected via vacuum filtration using buffer containing 10 mM HEPES (pH 7.4) and 0.5 M NaCl at 4° C., and a cell harvester (Brandel) equipped with glass fiber filters. Radioactivity was measured in a gamma counter at 70% efficiency.

CCR2:α1b-AR heteromers [8] = target: T4, CCR2:α1b-AR heteromers (Homo sapiens, UniProt P35368+P41597); experiment: BRET assay for β-arrestin recruitment, HEK293T co-expressing CCR2-Rluc, β-arrestin-YFP and α1b-AR; type: cell-based; design: expressed in transfected cells; settings: CCL2 plus vehicle; FIG. 5D
Description: as §4

CCR2:α1b-AR heteromers [9] = target: T4, CCR2:α1b-AR heteromers; experiment: PRESTO-Tango β-arrestin recruitment assay, HTLA cells with CCR2-Tango plus α1b-AR; type: cell-based; design: Tango module of the TANGO vector (C); expressed in transfected cells; host or cells: HTLA
Description: The assays were performed as described previously (Albee, 2017; Gao, 2022; Albee, 2018; Eby, 2017; Cheng, 2017). HTLA cells were seeded in a 6-well plate and transfected with 750 ng FLAG-CCR2-Tango together with 750 ng pcDNA3.1 or HA-α1b-AR using TransIT-2020 Transfection Reagent. The next day, cells (75,000 cells/well) were plated onto poly-L-Lysine pre-coated 96-well plates and allowed to attach to the plate surface for at least 4 hours prior to treatment. Cells were treated with receptor ligands at the concentrations indicated in the figure legends for 2 h and then replaced with fresh full medium and incubated overnight at 37° C., 5% CO2 in a humidified environment. The following morning, medium was replaced with a 100 μL 1:10 mixture of Bright-Glo (Promega) and PBS. Plates were then incubated at room temperature for 10 min before measuring luminescence on a Biotek Synergy II plate reader. Relative luminescence units (RLU) are expressed as fold changes of RLU vs unstimulated cells.

CCR1 = experiment: Chemotaxis assay, THP-1 cells toward CCL23 (CCR1-mediated); type: cell-based, human; settings: CCL23 10 nM, mean±SE, read-out: IC50 for inhibition of CCR1-mediated chemotaxis
Description: as §1

CXCR4 [10] = experiment: Chemotaxis assay, THP-1 cells toward CXCL12 (CXCR4-mediated); type: cell-based, human; settings: CXCL12 100 nM, mean±SE, read-out: IC50 for inhibition of CXCR4-mediated chemotaxis
Description: as §1

CCR2 [11] = target: T1, CCR2; experiment: Chemotaxis assay, THP-1 cells toward CCL2 (CCR2-mediated); type: cell-based; design: host or cells: THP-1; settings: CCL2 10 nM, mean±SE, read-out: IC50 for inhibition of CCR2-mediated chemotaxis
Description: as §1

T1 sequence (P41597 whole entry): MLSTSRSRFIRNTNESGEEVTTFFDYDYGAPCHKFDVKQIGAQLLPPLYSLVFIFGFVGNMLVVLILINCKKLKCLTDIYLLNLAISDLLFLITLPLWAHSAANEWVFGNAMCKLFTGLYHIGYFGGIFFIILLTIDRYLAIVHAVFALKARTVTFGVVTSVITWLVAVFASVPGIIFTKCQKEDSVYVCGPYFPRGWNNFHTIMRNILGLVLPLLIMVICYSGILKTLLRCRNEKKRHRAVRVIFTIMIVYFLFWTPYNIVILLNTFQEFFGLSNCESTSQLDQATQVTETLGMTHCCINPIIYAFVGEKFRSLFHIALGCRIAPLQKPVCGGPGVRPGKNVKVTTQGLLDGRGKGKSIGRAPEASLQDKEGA
T4 sequence (P41597 whole entry): as above
T4 sequence (P35368 whole entry): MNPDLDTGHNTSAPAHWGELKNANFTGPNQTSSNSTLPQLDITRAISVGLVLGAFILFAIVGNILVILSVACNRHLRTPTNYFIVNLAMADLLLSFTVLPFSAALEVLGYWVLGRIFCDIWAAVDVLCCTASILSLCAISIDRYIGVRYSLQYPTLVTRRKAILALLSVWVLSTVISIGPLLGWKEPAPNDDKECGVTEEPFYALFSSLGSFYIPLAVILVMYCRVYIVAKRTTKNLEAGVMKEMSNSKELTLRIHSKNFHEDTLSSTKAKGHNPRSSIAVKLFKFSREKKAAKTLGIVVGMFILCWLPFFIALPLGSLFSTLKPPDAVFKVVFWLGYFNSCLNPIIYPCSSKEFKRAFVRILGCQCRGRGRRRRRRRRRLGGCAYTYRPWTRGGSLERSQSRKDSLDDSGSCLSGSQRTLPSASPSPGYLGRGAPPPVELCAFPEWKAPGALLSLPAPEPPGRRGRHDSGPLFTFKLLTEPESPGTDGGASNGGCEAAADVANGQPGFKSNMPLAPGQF
T2 sequence (P41597 whole entry): as the sequence (P41597 whole entry) above
T2 sequence (P35368 whole entry): as the sequence (P35368 whole entry) above
T3 sequence (P51683 whole entry): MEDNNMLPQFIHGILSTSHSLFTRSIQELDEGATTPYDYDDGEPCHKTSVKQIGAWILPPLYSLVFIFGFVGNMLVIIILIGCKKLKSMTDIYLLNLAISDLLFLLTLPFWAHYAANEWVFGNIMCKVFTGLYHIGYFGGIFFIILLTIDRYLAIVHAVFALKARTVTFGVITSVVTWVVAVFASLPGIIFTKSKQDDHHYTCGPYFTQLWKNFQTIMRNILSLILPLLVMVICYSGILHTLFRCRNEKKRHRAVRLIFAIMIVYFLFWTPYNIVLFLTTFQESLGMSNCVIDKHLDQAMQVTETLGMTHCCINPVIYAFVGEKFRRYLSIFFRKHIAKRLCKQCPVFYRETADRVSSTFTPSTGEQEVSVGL

Compound: COc1ccccc1N1CCN(CCCNc2c(C)c(=O)n(C)c(=O)n2C)CC1 [5-Methylurapidil]
CR-mediated chemotaxis (CCR1, CCR2 and CXCR4) [1]: did not affect

Compound: COc1cc2nc(N3CCN(C(=O)c4ccco4)CC3)nc(N)c2cc1OC [prazosin]
CXCR4-mediated chemotaxis of primary human vascular smooth muscle cells (CXCR4 [2]): inhibit

Compound: COc1cc2nc(N3CCN(C(=O)c4ccco4)[C@H]4CCCC[C@H]43)nc(N)c2cc1OC (racemic) [cyclazosin]
CXCR4-mediated chemotaxis of primary human vascular smooth muscle cells (CXCR4 [2]): inhibit

bottom plateau (BRET change), Gαi1 activation by CCL2 (CCR2 [3]; cells transfected with CCR2 alone, FIG. 1B): −0.03±0.001
EC50 (CCR2 [3]; cells transfected with CCR2 alone, FIG. 1B, read-out: EC50 of CCL2, Gαi1 activation): 3.31 nM
bottom plateau, Gαi1 activation by human CCL2 (CCR2 [3]; human CCR2, FIG. 9A): −0.058±0.004
EC50 (CCR2 [3]; human CCR2, FIG. 9A, read-out: EC50 of human CCL2, Gαi1 activation): 1.4 ± 0.8 nM
bottom plateau, CCL2-induced Gαi activation (α1b-AR:CCR2 heteromer; CCL2 plus vehicle, FIG. 4C): −0.04±0.002
EC50 (α1b-AR:CCR2 heteromer; CCL2 plus vehicle, FIG. 4C, read-out: EC50 of CCL2 to induce Gαi activation): 0.9 ± 0.25 nM
bottom plateau, CCL2-induced Gαi activation (α1b-AR:CCR2 heteromer; CCL2 plus vehicle, FIG. 4D): −0.04±0.002
EC50 (α1b-AR:CCR2 heteromer; CCL2 plus vehicle, FIG. 4D, read-out: EC50 of CCL2 to induce Gαi activation): 1.3 ± 0.4 nM
bottom plateau, CCL2-induced Gαi activation (α1b-AR:CCR2 heteromer; CCL2 plus vehicle, FIG. 4F): −0.042±0.002
EC50 (α1b-AR:CCR2 heteromer; CCL2 plus vehicle, FIG. 4F, read-out: EC50 of CCL2 to induce Gαi activation): 1.5 ± 0.5 nM
bottom plateau (BRET change), Gαi1 activation by CCL2 (α1b-AR:CCR2 heteromer; cells transfected with CCR2 plus α1b-AR, FIG. 1B): −0.037±0.001
EC50 (α1b-AR:CCR2 heteromer; cells transfected with CCR2 plus α1b-AR, FIG. 1B, read-out: EC50 of CCL2, Gαi1 activation): 0.94 ± 0.2 nM
bottom plateau, Gαi1 activation by human CCL2 (mouse CCR2): −0.073±0.009
EC50 (mouse CCR2; read-out: EC50 of human CCL2, Gαi1 activation): 3.5 ± 3.1 nM
EC50 (CCR2 [5]): 3.5 ± 0.9 nM
IC50 (CCR2 [7]): 0.167 ± 0.023 nM
EC50 (CCR2:α1b-AR heteromers [8]): 3.7 ± 0.5 nM
Top plateau, β-arrestin recruitment BRET (CCR2:α1b-AR heteromers [8]): 0.06±0.001
EC50 (CCR2:α1b-AR heteromers [9]; CCL2 alone, FIG. 5B): 1.6 ± 1.3 nM
efficacy to induce β-arrestin recruitment to CCR2 (CCR2:α1b-AR heteromers [9]; agonist alone): 43±5 fold change RLU
efficacy of CCL2 relative to phenylephrine to recruit β-arrestin to CCR2 (CCR2:α1b-AR heteromers [9]; higher): 18 fold
Compound: CCL2: chemokine (C-C motif) ligand 2, cognate agonist of CCR2, CCR3 and CCR5
% inhibition of cAMP production by CCL2 ([4]; THP-1 cells incubated with non-targeting siRNA): 66±5%
% inhibition of cAMP production by CCL2 ([4]; THP-1 cells incubated with α1B-AR siRNA): 46±4%
reduction of cAMP levels by CCL2 ([4]; forskolin-stimulated THP-1 cells, 100 nM CCL2, 15 min at 37° C., FIG. 2B): 56±6%
inhibition of cAMP production by CCL2 (THP-1_ADRA1B^KO cells): 30±4%
binding affinity of CCL2 for CCR2 relative to CCR3 and CCR5 (CCR2 [6]): approximately 100 fold

IC50 (CCR1): 10.5 ± 0.91 nM
IC50 (CXCR4 [10]): 2.87 ± 0.6 nM
IC50 (CCR2 [11]): 0.93 ± 0.61 nM
Compound: COc1ccccc1N1CCN(CCN2C(=O)CC3(CCCC3)CC2=O)CC1 [BMY7378]
